Columns and labels:
[1] = target: T1, TraI1-1475 (Escherichia coli conjugative plasmid R1?, UniProt Q6TDU5 1-1475); assay: size exclusion chromatography; after 365 nm photocleavage, peak V; Anisotropy: 10 nM 22-merAlexa488, 50 mM Tris pH 7.2, 100 mM NaCl, 25 C, 20 min; complexes for gel filtration: protein and ssDNA mixed on ice 10 min (stocks in 50 mM Tris pH 7.2, 100 mM NaCl); EPR complexes: PBS pH 7.4, 1 mM MgCl2; conditions: protein: recombinant; tags: N-terminal His6 with enterokinase site; label: 5'-Cy5; inverted repeat
T1 sequence: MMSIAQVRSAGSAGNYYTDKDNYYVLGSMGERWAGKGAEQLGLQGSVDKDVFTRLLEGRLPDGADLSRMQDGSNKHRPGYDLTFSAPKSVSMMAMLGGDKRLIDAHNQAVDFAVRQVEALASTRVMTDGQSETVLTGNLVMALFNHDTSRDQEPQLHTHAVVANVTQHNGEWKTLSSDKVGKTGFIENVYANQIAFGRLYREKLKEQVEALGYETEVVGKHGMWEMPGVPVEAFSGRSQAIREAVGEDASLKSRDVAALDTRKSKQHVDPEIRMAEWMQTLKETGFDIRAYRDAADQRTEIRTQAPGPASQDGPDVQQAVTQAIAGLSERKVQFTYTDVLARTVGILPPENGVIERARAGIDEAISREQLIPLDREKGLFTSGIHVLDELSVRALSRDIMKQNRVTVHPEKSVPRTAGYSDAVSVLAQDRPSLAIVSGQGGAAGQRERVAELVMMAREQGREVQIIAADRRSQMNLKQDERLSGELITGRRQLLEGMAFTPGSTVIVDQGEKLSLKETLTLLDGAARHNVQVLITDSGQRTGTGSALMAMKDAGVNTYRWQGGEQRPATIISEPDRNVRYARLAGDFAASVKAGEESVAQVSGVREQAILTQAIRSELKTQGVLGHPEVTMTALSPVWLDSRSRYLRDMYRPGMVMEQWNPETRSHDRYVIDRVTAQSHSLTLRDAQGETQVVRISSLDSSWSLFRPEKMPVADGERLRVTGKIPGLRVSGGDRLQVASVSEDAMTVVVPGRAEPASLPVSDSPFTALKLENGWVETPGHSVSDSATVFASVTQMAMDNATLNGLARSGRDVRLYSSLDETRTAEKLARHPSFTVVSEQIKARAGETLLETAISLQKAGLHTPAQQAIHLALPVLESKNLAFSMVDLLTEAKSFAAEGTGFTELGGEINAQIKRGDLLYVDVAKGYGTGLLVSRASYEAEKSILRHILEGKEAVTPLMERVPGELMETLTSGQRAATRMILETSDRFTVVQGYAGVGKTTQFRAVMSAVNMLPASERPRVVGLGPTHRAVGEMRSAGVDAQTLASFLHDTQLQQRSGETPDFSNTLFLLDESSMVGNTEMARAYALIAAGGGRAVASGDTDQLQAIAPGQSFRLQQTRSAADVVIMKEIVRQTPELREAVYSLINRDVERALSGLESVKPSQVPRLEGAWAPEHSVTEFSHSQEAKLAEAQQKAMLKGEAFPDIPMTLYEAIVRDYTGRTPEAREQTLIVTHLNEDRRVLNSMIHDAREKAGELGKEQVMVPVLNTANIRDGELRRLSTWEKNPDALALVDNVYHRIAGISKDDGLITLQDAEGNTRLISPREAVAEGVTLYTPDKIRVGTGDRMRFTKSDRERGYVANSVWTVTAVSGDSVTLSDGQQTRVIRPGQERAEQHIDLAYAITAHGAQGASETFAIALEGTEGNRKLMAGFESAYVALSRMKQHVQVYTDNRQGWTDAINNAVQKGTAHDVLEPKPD

[2] = target: T2, TraI relaxase wild-type (Escherichia coli conjugative plasmid R1 …, UniProt Q6TDU5 1-1756); assay: size exclusion chromatography; protein:ssDNA 1:1, 2:1, 4:1; TraI dimer forms on 49-mer; Anisotropy: 10 nM 22-merAlexa488, 50 mM Tris pH 7.2, 100 mM NaCl, 25 C, 20 min; complexes for gel filtration: protein and ssDNA mixed on ice 10 min (stocks in 50 mM Tris pH 7.2, 100 mM NaCl); EPR complexes: PBS pH 7.4, 1 mM MgCl2; conditions: protein: recombinant; tags: N-terminal His6 with enterokinase site; inverted repeat 5' of nic
[3] = target: T2, TraI relaxase wild-type; assay: limited trypsin proteolysis; open, protease-sensitive conformer; Anisotropy: 10 nM 22-merAlexa488, 50 mM Tris pH 7.2, 100 mM NaCl, 25 C, 20 min; complexes for gel filtration: protein and ssDNA mixed on ice 10 min (stocks in 50 mM Tris pH 7.2, 100 mM NaCl); EPR complexes: PBS pH 7.4, 1 mM MgCl2; conditions: protein: recombinant; tags: N-terminal His6 with enterokinase site; inverted repeat
[4] = target: T2, TraI relaxase wild-type; assay: limited trypsin proteolysis; 1:1 complex; pattern as with 22-mer; Anisotropy: 10 nM 22-merAlexa488, 50 mM Tris pH 7.2, 100 mM NaCl, 25 C, 20 min; complexes for gel filtration: protein and ssDNA mixed on ice 10 min (stocks in 50 mM Tris pH 7.2, 100 mM NaCl); EPR complexes: PBS pH 7.4, 1 mM MgCl2; conditions: protein: recombinant; tags: N-terminal His6 with enterokinase site
[5] = target: TraI A1105W/M795A (Escherichia coli conjugative plasmid R1?, UniProt Q6TDU5 1-1756, A1105W;M795A); assay: fluorescence anisotropy; higher affinity than the single mutants A1105W and M795A; Kd only in figure; Anisotropy: 10 nM 22-merAlexa488, 50 mM Tris pH 7.2, 100 mM NaCl, 25 C, 20 min; complexes for gel filtration: protein and ssDNA mixed on ice 10 min (stocks in 50 mM Tris pH 7.2, 100 mM NaCl); EPR complexes: PBS pH 7.4, 1 mM MgCl2; conditions: protein: recombinant; tags: N-terminal His6 with enterokinase site; label: 3'-Alexa488
[6] = target: TraI-MBP (Escherichia coli conjugative plasmid R1?, UniProt Q6TDU5 1-1756); assay: size exclusion chromatography; after 365 nm photocleavage, peak IV; Anisotropy: 10 nM 22-merAlexa488, 50 mM Tris pH 7.2, 100 mM NaCl, 25 C, 20 min; complexes for gel filtration: protein and ssDNA mixed on ice 10 min (stocks in 50 mM Tris pH 7.2, 100 mM NaCl); EPR complexes: PBS pH 7.4, 1 mM MgCl2; conditions: protein: recombinant; tags: N-terminal His6 with enterokinase site; C-terminal MBP via TPGSP linker; label: 3'-6-FAM

GCAAAAACTTGTTTTTGCGTGGGGTGTGGT (ssDNA, 3' end from PC linker photocleavage) [Cy5-30-mer photocleavage product]
binding result [1]: binds

GCAAAAACTTGTTTTTGCGTGGGGTGTGGTGCTTTTGGTGGTGAGAACC (ssDNA) [49-mer oriT]
binding result [2]: binds

GCAAAAACTTGTTTTTGCGTGGGGTGTGGT (ssDNA) [30-mer]
binding result [3]: binds

GCTTTTGGTGGTGAGAACC (ssDNA) [19-mer]
binding result [4]: binds

GGTGCTTTTGGTGGTGAGAACC (ssDNA) [22-merAlexa488]
binding result [5]: binds

GCTTTTGGTGGTGAGAACC (ssDNA, 5' end from PC linker photocleavage) [19-mer-6-FAM photocleavage product]
binding result [6]: binds
